The values that follow come from article doi:10.1101/760389 (bioRxiv, 2019).

T1: MBP-tagged CKL6 (casein kinase1-like 6) (Arabidopsis thaliana, UniProt Q8LPJ1 1-479)
T1 sequence (looked up): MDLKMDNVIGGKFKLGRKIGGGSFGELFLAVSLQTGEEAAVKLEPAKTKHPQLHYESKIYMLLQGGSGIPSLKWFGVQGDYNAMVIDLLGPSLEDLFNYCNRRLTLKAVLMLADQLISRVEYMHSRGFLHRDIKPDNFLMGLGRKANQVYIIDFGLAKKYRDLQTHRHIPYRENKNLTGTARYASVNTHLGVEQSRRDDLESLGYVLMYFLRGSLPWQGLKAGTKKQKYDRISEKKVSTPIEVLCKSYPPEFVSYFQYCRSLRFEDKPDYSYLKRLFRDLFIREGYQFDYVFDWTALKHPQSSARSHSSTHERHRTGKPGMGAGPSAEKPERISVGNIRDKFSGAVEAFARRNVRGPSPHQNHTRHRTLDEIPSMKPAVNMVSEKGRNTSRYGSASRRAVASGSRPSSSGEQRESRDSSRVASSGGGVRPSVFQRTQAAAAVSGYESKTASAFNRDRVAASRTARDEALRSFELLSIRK

B1: FRA1 C-terminal tail fragment (amino acids 616-1035), C-terminal 6xHis fusion (domain or fragment, Arabidopsis thaliana, UniProt Q8GS71 616-1035, looked up)
chain: ARRLQDEIQSIKAQKVQLQHRMKQEAEQFRQWKASREKELLQLRKEGRKSEYERHKLQALNQRQKMVLQRKTEEAAMATKRLKELLEARKSSPREHSAGTNGFGTNGQTNEKSLQRWLDHELEVMVNVHEVRHEYEKQSHVRAALAEELAVLRQVDEFAVKGLSPPRGKNGFARASSLSPNARMARISSLENMLVISSNSLVAMASQLSEAEERERAFTNRGRWNQLRSMGEAKNLLQYMFNSLAETRCQLWEKDVEIKEMKDQFKEIVGLLRQSELRRKEAEKELKLREQAIATSLGTPPSSVKHVAEDLSTPSPMTVPAQKQLKFTPGIANGKVRGPAAFLDTNKKMVPMGQVSMRKLSAVGKQGGRLWRWKRSHHQWIVQFKWKWQKPWRLSEWIRTSDETLLKSKPRLKALPNKIM
B2: MBP-tagged CKL3 (casein kinase1-like 3) (enzyme, Arabidopsis thaliana, UniProt Q93Z18 1-415, looked up)
chain: MERIIGGKYKLGRKIGGGSFGEIFLATHVDTFEIVAVKIENSKTKHPQLLYEAKLYRILEGGSGIPRIKWFGVDGTENALVMDLLGPSLEDLFVYCGRKFSPKTVLMLADQMLTRIEFVHSKGYLHRDIKPDNFLMGLGRKANQVYLIDFGLAKRYRDANTNRHIPYRENKNLTGTARYASCNTHLGIEQSRRDDLESLGYVLLYFLRGSLPWQGLKAVDKKQKYDKICEKKISTPIEVLCKNHPVEFASYFHYCHTLTFDQRPDYGFLKRLFRDLFSREGYEFDYIFDWTIIKYQQAQKSRNQSQAVPGSSNPRAMPVDTSNHRGGPNISYEAEASERVRSANAIGPSPQINNNTAAGRTPGFDHPVHKNMNMPSTSLSPAGTSKRNVGPETSNSGYGSGNRTGWTSSFMSPEK

Experiment [1] concerns the target T1, MBP-tagged CKL6 (casein kinase1-like 6). As to the kind of experiment: pull-down.
Experiment [2] addresses B1. The experiment can be described thus: pull-down.

Consider B1, for which the binding result in experiment [1] was “binds”. On to B2, for which the binding result in experiment [2] is on record as “binds”.
